Results: PMC9162458, “Divergent binding mode for a protozoan BRC repeat to RAD51” (Biochemical Journal, 2022)
Ends that are not written are not given here.

B1: GB1-LiBRC2-His8 (BRC repeat 2 of Leishmania infantum BRCA2 fused to GB1) (domain or fragment)
chain: GB1-RVPTLFETGRGKAVTVQKRSLDKAEASMDSLEA-His8
B2: LiBRC1.2 (LiBRC1 with extended termini, GB1 fusion) (domain or fragment)
chain: LVPTLFSTASGKPVTVRRESLQKVAERLGDLAAPDME
modifications: not fully specified (N-terminus); also: GB1 fusion
B3: LiBRC1.3 (LiBRC1 with extended termini, GB1 fusion) (domain or fragment)
chain: AAAPPLVPTLFSTASGKPVTVRRESLQKVAERLGDLAA
modifications: not fully specified (N-terminus); also: GB1 fusion

Target: T1, LiRAD51^ATPase (Leishmania infantum RAD51 ATPase domain, residues 134–386) (Leishmania infantum)
T1 construct: RAD51 of Leishmania infantum, ATPase domain, residues 134-386; Vector pHAT2 (Addgene #112583); No removal of the His-tag is described; also called monomeric LiRAD51^ATPase; LiRAD51 ATPase domain; source: E. coli (T7Express or BL21(DE3)); purified (Ni-NTA, Superdex 75 SEC) for FP and ITC; in lysate for the pull-down
Experiment: fluorescence polarisation; competition: 5 nM Fluor-NCys-LiBRC1 probe with 500 nM LiRAD51^ATPase, GB1-LiBRC repeats in serial dilutions; KD estimated from the fitted IC50; 50 mM Tris pH 8.0, 150 mM NaCl, 100 mM Li2SO4, 1% BSA, 0.1% Tween-20
Conditions: both partners purified

| Binder | Kd [nM] |
| --- | --- |
| B1 | 13600 |
| B2 | 190 |
| B3 | 310 |
